Laboratory results published in patent US20260218174.

Columns and labels:
Test in all cases: cleavage_in_vitro
[1] = test system: OMNI-XL-18 (unidentified metagenomic bacterium); conditions: TXTL; PAM NGYCCNNN
[2] = test system: OMNI-XL-19 (unidentified metagenomic bacterium); conditions: TXTL; PAM NRGNRCNN
[3] = test system: OMNI-XL-12 (unidentified metagenomic bacterium); conditions: TXTL; PAM relaxed NRNNCCNN, strict NRTNCCRN
[4] = test system: OMNI-XL-16 (unidentified metagenomic bacterium); conditions: TXTL; PAM NARNACVN

OMNI-XL-12 (unidentified metagenomic bacterium), sequence (chain, as listed by the source): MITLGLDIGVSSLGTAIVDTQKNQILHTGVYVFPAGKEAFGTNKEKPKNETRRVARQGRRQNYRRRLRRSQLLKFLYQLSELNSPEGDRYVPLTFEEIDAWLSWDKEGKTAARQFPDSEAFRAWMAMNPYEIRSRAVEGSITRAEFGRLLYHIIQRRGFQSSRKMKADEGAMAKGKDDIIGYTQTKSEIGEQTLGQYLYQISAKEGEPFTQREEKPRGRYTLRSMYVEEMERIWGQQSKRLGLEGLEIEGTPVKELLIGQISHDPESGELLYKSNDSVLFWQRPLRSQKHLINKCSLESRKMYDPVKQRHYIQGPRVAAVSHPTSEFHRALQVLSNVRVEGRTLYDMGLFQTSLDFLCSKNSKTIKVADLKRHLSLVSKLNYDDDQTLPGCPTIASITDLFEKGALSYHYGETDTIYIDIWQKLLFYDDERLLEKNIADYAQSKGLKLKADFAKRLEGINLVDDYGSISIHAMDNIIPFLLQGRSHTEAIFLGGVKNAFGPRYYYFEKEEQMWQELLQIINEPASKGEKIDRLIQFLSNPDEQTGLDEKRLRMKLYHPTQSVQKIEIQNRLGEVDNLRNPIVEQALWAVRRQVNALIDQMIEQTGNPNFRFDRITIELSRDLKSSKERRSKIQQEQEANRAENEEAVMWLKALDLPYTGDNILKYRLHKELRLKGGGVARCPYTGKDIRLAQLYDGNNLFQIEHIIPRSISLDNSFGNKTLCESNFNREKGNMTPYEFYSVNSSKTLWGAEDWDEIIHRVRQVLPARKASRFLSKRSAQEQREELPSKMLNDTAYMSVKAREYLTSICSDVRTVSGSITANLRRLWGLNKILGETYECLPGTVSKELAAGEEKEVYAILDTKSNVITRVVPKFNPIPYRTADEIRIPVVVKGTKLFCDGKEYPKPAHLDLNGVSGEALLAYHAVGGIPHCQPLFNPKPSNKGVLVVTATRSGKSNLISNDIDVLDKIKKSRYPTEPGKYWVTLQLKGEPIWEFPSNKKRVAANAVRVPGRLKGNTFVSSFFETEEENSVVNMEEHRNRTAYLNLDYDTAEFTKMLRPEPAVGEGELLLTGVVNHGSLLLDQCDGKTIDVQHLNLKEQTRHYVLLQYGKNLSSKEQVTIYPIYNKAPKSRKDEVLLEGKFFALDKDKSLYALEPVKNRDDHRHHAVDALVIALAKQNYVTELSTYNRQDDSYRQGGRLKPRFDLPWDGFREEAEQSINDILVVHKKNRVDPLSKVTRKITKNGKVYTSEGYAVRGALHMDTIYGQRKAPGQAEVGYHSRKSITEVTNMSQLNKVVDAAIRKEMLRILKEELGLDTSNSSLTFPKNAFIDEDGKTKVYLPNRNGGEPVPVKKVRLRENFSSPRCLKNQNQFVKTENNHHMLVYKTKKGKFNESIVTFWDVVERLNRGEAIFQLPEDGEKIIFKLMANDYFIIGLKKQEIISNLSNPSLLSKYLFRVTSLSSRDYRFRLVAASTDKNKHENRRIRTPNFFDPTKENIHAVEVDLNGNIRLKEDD
OMNI-XL-18 (unidentified metagenomic bacterium), sequence (chain, as listed by the source): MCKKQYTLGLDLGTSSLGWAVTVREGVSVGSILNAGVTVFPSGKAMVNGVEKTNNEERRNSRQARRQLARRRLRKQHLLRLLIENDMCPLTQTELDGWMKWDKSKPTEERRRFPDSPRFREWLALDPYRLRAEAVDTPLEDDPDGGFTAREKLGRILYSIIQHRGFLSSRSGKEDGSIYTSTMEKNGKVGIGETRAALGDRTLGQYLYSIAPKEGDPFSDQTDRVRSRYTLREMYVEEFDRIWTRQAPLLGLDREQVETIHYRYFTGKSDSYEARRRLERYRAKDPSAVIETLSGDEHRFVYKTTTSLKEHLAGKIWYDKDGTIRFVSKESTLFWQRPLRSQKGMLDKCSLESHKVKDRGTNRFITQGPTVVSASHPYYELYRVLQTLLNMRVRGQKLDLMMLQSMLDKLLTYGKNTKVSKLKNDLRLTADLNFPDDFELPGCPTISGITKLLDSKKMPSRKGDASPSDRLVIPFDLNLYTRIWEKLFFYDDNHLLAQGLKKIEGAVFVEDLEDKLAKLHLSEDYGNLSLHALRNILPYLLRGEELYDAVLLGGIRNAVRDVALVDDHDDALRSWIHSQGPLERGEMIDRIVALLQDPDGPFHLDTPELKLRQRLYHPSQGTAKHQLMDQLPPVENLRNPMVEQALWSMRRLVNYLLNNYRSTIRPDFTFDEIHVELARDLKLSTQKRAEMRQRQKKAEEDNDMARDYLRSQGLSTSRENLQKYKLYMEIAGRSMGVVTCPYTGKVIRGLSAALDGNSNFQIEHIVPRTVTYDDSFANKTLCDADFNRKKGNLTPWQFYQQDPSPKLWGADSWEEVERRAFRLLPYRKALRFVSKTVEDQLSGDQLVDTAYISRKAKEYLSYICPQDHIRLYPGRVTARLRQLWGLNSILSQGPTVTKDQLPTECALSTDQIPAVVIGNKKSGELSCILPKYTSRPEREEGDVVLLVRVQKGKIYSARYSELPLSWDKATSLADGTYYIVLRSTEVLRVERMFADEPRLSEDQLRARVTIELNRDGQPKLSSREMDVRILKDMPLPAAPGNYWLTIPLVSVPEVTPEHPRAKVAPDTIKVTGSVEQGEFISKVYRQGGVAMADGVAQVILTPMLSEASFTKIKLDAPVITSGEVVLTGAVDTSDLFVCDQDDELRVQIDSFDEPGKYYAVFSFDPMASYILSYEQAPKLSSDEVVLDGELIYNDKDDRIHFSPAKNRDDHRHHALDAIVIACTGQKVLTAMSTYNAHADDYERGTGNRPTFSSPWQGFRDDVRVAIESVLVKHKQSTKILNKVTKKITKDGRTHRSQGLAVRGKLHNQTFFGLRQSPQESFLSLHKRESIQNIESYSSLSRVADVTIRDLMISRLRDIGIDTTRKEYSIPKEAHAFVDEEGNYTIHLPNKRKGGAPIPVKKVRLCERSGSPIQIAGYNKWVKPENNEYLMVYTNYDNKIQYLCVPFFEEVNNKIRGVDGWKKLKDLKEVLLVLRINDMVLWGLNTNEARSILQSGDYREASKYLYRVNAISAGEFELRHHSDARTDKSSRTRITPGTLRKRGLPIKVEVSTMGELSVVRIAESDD
OMNI-XL-19 (unidentified metagenomic bacterium), sequence (chain, as listed by the source): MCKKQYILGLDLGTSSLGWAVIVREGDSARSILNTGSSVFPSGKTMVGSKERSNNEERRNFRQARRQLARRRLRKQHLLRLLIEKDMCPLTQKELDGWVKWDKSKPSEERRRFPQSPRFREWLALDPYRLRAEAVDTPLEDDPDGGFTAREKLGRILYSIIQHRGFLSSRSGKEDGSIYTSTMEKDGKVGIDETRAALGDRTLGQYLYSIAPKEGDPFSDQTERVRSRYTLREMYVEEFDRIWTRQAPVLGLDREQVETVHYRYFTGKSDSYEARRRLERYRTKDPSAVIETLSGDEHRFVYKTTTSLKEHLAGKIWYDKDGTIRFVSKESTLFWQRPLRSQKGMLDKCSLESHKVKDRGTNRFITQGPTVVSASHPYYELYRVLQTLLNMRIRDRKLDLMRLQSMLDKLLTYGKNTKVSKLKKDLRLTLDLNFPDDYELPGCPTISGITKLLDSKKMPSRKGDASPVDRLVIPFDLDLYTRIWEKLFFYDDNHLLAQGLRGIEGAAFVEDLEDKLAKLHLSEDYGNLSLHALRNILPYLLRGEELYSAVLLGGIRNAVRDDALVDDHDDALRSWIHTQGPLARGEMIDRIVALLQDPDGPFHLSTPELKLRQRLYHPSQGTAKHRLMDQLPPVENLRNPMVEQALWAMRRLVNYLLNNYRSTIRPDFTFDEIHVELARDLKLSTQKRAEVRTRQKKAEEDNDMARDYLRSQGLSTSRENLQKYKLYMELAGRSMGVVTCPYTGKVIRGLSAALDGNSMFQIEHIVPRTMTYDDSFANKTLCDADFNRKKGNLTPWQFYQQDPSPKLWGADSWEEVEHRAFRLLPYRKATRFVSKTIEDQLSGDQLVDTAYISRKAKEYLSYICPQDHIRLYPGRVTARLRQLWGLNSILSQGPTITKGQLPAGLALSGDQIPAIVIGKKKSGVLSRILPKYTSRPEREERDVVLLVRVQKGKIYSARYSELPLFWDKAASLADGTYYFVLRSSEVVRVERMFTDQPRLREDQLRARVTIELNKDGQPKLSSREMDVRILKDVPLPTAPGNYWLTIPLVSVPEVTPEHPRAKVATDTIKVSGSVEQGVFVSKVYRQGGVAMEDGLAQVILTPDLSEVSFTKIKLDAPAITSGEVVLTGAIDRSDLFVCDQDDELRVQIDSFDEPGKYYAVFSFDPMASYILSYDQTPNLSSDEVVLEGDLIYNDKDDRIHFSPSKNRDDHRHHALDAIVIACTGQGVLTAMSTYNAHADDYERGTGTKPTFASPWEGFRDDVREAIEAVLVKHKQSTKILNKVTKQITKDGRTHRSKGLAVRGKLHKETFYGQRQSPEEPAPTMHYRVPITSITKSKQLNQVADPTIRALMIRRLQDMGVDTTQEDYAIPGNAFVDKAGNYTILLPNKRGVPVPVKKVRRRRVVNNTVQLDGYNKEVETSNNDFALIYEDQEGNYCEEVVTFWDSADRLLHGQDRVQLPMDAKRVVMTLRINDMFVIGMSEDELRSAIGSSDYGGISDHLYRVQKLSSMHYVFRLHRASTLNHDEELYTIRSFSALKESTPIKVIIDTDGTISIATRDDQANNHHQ

Row | Sequence | activity (1-depletion score) [1] | activity (1-depletion score) [3] | further results
1 | GGAAGAGCAGAGCCUUGGUCUCGUUGUGGAUUGAUCAGUUUGAAAAAACGAUCUCUUCACAACAAGGCUAUAUGCCGUAGUUGAUUCUACGCUCCCGCUUCGGCGGGAGCUUUUUUU / GGAAGAGCAGAGCCTTGGTCTCNNNNNNNN / NNNNNNNNGAGACCAAGGCTCTGCTCTTCC [OMNI-XL-18 sgRNA V2 T2 ; T2 protospacer 8N PAM library] | 0.98 |  | 
2 | GGAAGAGCAGAGCCUUGGUCUCGUUGUGGAUUGAUCAGUUUGAAAAAACGAUCUUUUCACAACAAGGCUAUAUGCCGUAGUUGAUUCUACGCUCCCGCUUCGGCGGGAGCUUUUUUU / GGAAGAGCAGAGCCTTGGTCTCNNNNNNNN / NNNNNNNNGAGACCAAGGCTCTGCTCTTCC [OMNI-XL-18 sgRNA V1 T2 ; T2 protospacer 8N PAM library] | 0.97 |  | 
3 | GGAAGAGCAGAGCCUUGGUCUCGUUGUGGAUUGAUCAGUUUGAAAAAACGAUCUUUUCACAACAAGGCUAUAUGCCGUAGUUGAUUCUACGCUCCCGCUUCGGCGGGAGCUUUUUUUU / GGAAGAGCAGAGCCTTGGTCTCNNNNNNNN / NNNNNNNNGAGACCAAGGCTCTGCTCTTCC [OMNI-XL-19 sgRNA V1 T2 ; T2 protospacer 8N PAM library] |  |  | activity (1-depletion score) [2]: 0.94
4 | GGAAGAGCAGAGCCUUGGUCUCGUUGUGGAUUGAUUACUUUGAAAAAAGUAAUCUCUUCAUAACAAGGCUAUAUGCCGAAGUUAUUACGGCUCCACUUCGGUGGAGCCUUUUUU / GGAAGAGCAGAGCCTTGGTCTCNNNNNNNN / NNNNNNNNGAGACCAAGGCTCTGCTCTTCC [OMNI-XL-12 sgRNA V2 T2 ; T2 protospacer 8N PAM library] |  | 0.97 | 
5 | GGAAGAGCAGAGCCUUGGUCUCGUUGUGGAUUGAUUACUUUGAAAAAAGUAAUCUUUUCAUAACAAGGCUAUAUGCCGAAGUUAUUACGGCUCCACUUCGGUGGAGCCUUUUUU / GGAAGAGCAGAGCCTTGGTCTCNNNNNNNN / NNNNNNNNGAGACCAAGGCTCTGCTCTTCC [OMNI-XL-12 sgRNA V1 T2 ; T2 protospacer 8N PAM library] |  | 0.98 | 
6 | GGAAGAGCAGAGCCUUGGUCUCGUUGUGGUUUGAUGUAAUUGAAAAAAUUACAUCUUAUCACAAUAAGGCUAUAUGCCGAAGGAUAAAAUGUCCUAUACUCCUGCUUCGGUAGGAGUUUUUUU / GGAAGAGCAGAGCCTTGGTCTCNNNNNNNN / NNNNNNNNGAGACCAAGGCTCTGCTCTTCC [OMNI-XL-16 sgRNA V1 T2 ; T2 protospacer 8N PAM library] |  |  | activity (1-depletion score) [4]: 0.64
